Values quoted from earlier work as cited in patent US20260183395A1, “COMBINED THERAPIES USING IMMUNOMODULATING DRUGS” (ONK THERAPEUTICS LIMITED, priority 2022, published 2026).

Experiments:
[1] = target: T1, decoy receptor DcR1 (Homo sapiens, UniProt O14798); settings: surface plasmon resonance; WO 2009/077857
T1 sequence (O14798 26-236): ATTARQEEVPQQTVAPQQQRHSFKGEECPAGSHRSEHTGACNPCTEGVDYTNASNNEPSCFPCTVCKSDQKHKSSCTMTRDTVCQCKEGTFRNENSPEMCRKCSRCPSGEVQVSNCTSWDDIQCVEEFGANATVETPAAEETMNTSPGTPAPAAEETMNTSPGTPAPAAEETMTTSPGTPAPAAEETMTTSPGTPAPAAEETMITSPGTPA

[2] = target: DR4 (Homo sapiens, UniProt O00220); settings: surface plasmon resonance; WO 2009/077857

## Wildtype TRAIL: Wildtype TRAIL ligand, baseline for the affinity of TRAIL variants/mutants
[1]
  Kd: > 0.02 µM
[2]
  Kd: > 0.002 µM
